A short description of the data set: amyloid nucleation score (Sup35N fusion, yeast selection) (log enrichment); library NNK3; higher = more nucleation; inactive = no reads after selection. The essentials: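 Yeast lacking psi expressed peptides of 20 random codons fused to Sup35N, received 100 μM copper sulfate for 24 hours, and were then grown for 7 days at 30°C on medium lacking adenine and uracil. Illumina sequencing of input and output plasmid inserts provided the reads. Nucleation scores are DiMSum log enrichments of output over input, centred on the mode of non-aggregating sequences. Any sequence with under 100 input reads was excluded.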

± gives the uncertainty stated by the source.

DLQRLSNRKSKGLWSGCIGK: the amyloid nucleation score result was “inactive”.
The entry for FGSGRVSQLVRYDSFLEEFL is “inactive”.
The entry for MFLKMRWSNAVRMARKCNLE is “inactive”.
PNKDSLWDPFKQQSRSEK yielded an amyloid nucleation score of -0.455 ± 0.93.
With SFQSLTM, the amyloid nucleation score entry is “inactive”.
The entry for RNVGKGNAVQSGPAWIERS is “inactive”; for NTNVVSDYIHHAF it is “inactive”; for MAEWENRLARYSGICGSSLP it is “inactive”.
The entry for SAFCCRSMSGVEFLRAFVSK is “inactive”; for LISNFVWLQLRCA it is “inactive”; for TNDAGHVWYSLCLRIFNTNV it is “inactive”.
PRCMYRLVFICGPGFRCSAG displayed an amyloid nucleation score of -0.07 ± 0.47.
The entry for NLPLKFDTFTFLCVRLNSLS is “inactive”; for VDMSELVWIISPEVHTVSCS it is “inactive”.
The figure for SWNVFFFSGFRVPYYALTGV is 0.254 ± 0.82.
For GALGSVMVNGRGVTSEGSPY, the amyloid nucleation score amounted to 0.341 ± 0.39.
ARLVAGCVMCHGSLWEMIRE came in with an amyloid nucleation score of 0.572 ± 0.28.
On to HANCANRLNYLYVLYRAS, for which the amyloid nucleation score entry was “inactive”.
As for FFSASQRVAY, the amyloid nucleation score entry was “inactive”.
The entry for GRSLVYR is “inactive”.
For the substance NCGSYSKSDN, the amyloid nucleation score result is “inactive”.
For the substance TMSGWFNGCVYGVSAIHSSD, the amyloid nucleation score entry was “inactive”.
Substance TALGSDMTYITARRI returned an amyloid nucleation score of 0.671 ± 0.15.
The entry for QQSWFTIYDVILYR is “inactive”; for RYADHAYLVPKFGQTEQENV it is “inactive”; for RMDNCSGDI it is “inactive”.
The entry for YVFKYVEEVSHFSLFLWTKS is “inactive”; for RVITCWSQQCWHDRCLVCGK it is “inactive”; for CSGYFDCIDTLKCNSS it is “inactive”.
In the case of LGKHRANHCMAGQDVAYKWV, the amyloid nucleation score was -0.831 ± 1.1.
The entry for NTDFYVVVDRIMFRLLHGFK is “inactive”; for LLDYRPKTGNCRVQIRLCVV it is “inactive”.
The entry for YWSNPYSYKFYEFMIHTALQ is “inactive”.
The substance RQGRYEHQRGPFSLVSQVG showed an amyloid nucleation score of -0.083 ± 1.1.
In the case of TCMSVNVFRGYIIAW, the amyloid nucleation score entry was “inactive”.
On to QFEHF, for which the amyloid nucleation score result is “inactive”.
Take VCSVFLLLCANRLRVGGNYI: the amyloid nucleation score entry is “inactive”.
For the substance MMCPLKLWYHVWFSGYTL, the amyloid nucleation score result is “inactive”.
For NSWRHKMMQMKSYHSNVCIW, the amyloid nucleation score result was “inactive”.
Turning to QWILHNFTVGARPGPVRTKE, the amyloid nucleation score entry is “inactive”.
The entry for DCESQQLSSSMWDTPQRWLT is “inactive”; for SYVVRLMSLVAWN it is “inactive”.
For ICGCPTYCNEANLLLERN, the amyloid nucleation score entry is “inactive”.
For the substance LNGIEGSGY, the amyloid nucleation score entry was “inactive”.
Turning to RRLPSELYMSYHYHFFFKSG, the amyloid nucleation score result was “inactive”.
As to GPNRYW, the amyloid nucleation score result was “inactive”.
ATICYEVRWEPDSSPGRS: the amyloid nucleation score result is “inactive”.
Regarding LLSVICLTSIHF, the amyloid nucleation score was 2.74 ± 0.067.
The figure for IFIGVGNVGEVLVIYSWQRN is 0.035 ± 0.48; for TKHETSLVCRLLTETRFKNI it is “inactive”.
Take FVSDRSSGYTGMLIKDAL: the amyloid nucleation score result was “inactive”.
As to EAVKWPHMILPHCTHMWIYW, the amyloid nucleation score result is “inactive”.
The figure for NVYELIDCGLTYQVYSYGSR is 0.611 ± 0.24; for AFMVKYSSVLYVCNLALGRA it is “inactive”.
The entry for RFTDRCTLHFQMFVVLRAVI is “inactive”; for GLLFCSL it is -0.248 ± 0.34; for VENGCGAT it is “inactive”.
The entry for RNHGGNDSDILRRSESMSDR is “inactive”.
Regarding YNDWQKEMCIITICVL, the amyloid nucleation score entry is “inactive”.
As for YIWLKGNIRRSQWLLSLPFM, the amyloid nucleation score entry was “inactive”.
The entry for VSKYIVSHIASSWSWGQWVL is “inactive”; for CLYFY it is 1.93 ± 0.1.
The entry for ILCSSDCDSYSLQPLFGFPC is “inactive”.
As for YSVLLCVALRLVNNVA, the amyloid nucleation score entry is “inactive”.
For the substance IGIINMSLN, the amyloid nucleation score came to 1.19 ± 0.11.
The entry for VPGYLWECS is “inactive”; for RLRLGAAGRQGSEVVYNWSM it is 1.23 ± 0.12.
As for NCLVVTGRKVPSETHLVFLM, the amyloid nucleation score result is “inactive”.
As for RWSVCSCYSWERSGSRSQ, the amyloid nucleation score result is “inactive”.
The entry for DSYCYVWYKYSNVNVGD is “inactive”; for CDMDVFLSNMPSSVVNRSG it is “inactive”.
The entry for WSWGTG is “inactive”; for SLFYHTGRS it is 0.459 ± 0.15.
For KTDTCRNIL, the amyloid nucleation score result was “inactive”.
The entry for LTQMCFTTSVFLRLAWVPFK is “inactive”; for DIFCCWTDISDLF it is “inactive”; for KTSIRRCLSIRC it is “inactive”.
With ITFIM, the amyloid nucleation score result was “inactive”.
In the case of GIQIYAMFTFSKSFMLGNWY, the amyloid nucleation score entry was “inactive”.
The entry for GLLPSKKILFLAILTHNRCW is “inactive”; for FCEGYFWCVI it is “inactive”.
The figure for NDWRCKEVTSSDIWAFVYCS is 0.967 ± 0.12; for YVWIDTMGL it is “inactive”; for SLDCCNGVDRFKVSNILHYP it is “inactive”.
The entry for SSCSSDLAKQYGDMTFI is “inactive”; for KIQSSTNLPFGASL it is “inactive”.
Take GTSMSRPDIVTDKVMPFLRR: the amyloid nucleation score result is “inactive”.
The entry for MTSSVP is “inactive”; for IRNFSLKPISSNLNSL it is “inactive”.
Consider CFVYRTLISNLFSIWHSLQF, for which the amyloid nucleation score entry is “inactive”.
The entry for LHESRVAGSNQLSRRDHERW is “inactive”.
The entry for NGIVPLSHLFYIGDSVKWWG is “inactive”; for VCNYEVVAVIRDE it is “inactive”; for LCILMMKVKVCVGNGLFLSA it is “inactive”.
The figure for ESASSYFLY is 0.583 ± 0.24; for SCSLCWPIHRDFHMCTSSVC it is “inactive”; for LIRAVGFGGWILIAHWYIWN it is “inactive”.
Take MYYAN: the amyloid nucleation score entry is “inactive”.

These data come from the supplement of paper PMC12042874.
